Numbered stars: 1 amine (or outer) side, 2 acyl side, 3 side chain; on linkers, the order of the positions; unused ones are H or OH. Bridge positions count the residues as written; N and C are the ends. Side chains are listed from the residue outwards. Ends that are not written are not given here. * marks the point of attachment. C20 diacid = O=C(O)CCCCCCCCCCCCCCCCCCC(=O)*; γGlu = O=C(O)[C@H](CCC(=O)[*:2])N[*:1]
T1: human amylin receptor (amylin 3(a) receptor: human calcitonin receptor plus RAMP-3) (human, UniProt P30988 25-474; O60896 24-148)
T1 sequence (looked up) 1: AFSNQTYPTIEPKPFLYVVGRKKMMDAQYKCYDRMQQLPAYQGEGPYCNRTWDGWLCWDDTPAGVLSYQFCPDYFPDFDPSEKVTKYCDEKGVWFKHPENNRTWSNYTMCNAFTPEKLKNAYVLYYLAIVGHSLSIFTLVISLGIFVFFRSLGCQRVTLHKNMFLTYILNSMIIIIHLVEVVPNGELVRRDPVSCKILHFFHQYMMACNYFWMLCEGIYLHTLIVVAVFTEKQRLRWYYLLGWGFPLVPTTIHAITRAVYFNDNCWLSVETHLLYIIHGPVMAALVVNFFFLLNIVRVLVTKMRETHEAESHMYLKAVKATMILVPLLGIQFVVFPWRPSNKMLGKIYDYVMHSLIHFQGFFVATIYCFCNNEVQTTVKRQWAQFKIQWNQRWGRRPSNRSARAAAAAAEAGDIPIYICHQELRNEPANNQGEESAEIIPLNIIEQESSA
T1 sequence (looked up) 2: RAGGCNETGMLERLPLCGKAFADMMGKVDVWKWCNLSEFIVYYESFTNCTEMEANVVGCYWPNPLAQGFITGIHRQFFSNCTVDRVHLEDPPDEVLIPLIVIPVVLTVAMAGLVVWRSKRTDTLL

T2: human calcitonin receptor (human, UniProt P30988 25-474)
T2 sequence (looked up): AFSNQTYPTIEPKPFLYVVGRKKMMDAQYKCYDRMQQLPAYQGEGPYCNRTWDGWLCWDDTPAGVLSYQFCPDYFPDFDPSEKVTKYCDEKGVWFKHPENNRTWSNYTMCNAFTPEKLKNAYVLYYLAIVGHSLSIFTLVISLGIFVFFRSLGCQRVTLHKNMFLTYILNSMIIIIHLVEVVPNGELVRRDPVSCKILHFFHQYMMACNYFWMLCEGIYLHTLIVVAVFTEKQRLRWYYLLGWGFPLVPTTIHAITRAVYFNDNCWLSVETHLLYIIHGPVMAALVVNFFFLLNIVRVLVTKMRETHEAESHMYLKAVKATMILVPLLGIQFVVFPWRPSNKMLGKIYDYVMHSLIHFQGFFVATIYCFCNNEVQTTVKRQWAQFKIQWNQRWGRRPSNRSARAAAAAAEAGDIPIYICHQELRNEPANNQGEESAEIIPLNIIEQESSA


Key:
[1] = target: T1, human amylin receptor (amylin 3(a) …); assay: cell-based or functional assay
[2] = target: T2, human calcitonin receptor; assay: cell-based or functional assay
[3] = target: T1, human amylin receptor (amylin 3(a) …); assay: SPA competition binding, displacement of 125I-rat amylin, membranes of BHK amylin 3(a)/CRE-luc cells
Outline: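 SPA beads with BHK Amylin 3(a)/CRE-luc cell membranes (35 ng/μL final) in 50 mM Hepes pH 7.4, 1 mM CaCl2, 5 mM MgCl₂, 0.1% OA, 0.02% Tween20.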

Binder | Ratio hCT/hAmylin funct. [1] | hAmylin-R funct. EC50 (pM) [1] [pM] | hCTR funct. EC50 (pM) [2] [pM] | IC50 [3] [nM]
K([γGlu-C20 diacid])CNTATCATQRLAEFLRHSSPNFGAIPSSTNVGPETY-NH2 (disulfide 2-7; N-terminus assumed; SMILES CC[C@H](C)[C@H](NC(=O)[C@H](C)NC(=O)CNC(=O)[C@H](Cc1ccccc1)NC(=O)[C@H](CC(N)=O)NC(=O)[C@@H]1CCCN1C(=O)[C@H](CO)NC(=O)[C@H](CO)NC(=O)[C@H](Cc1c[nH]cn1)NC(=O)[C@H](CCCNC(=N)N)NC(=O)[C@H](CC(C)C)NC(=O)[C@H](Cc1ccccc1)NC(=O)[C@H](CCC(=O)O)NC(=O)[C@H](C)NC(=O)[C@H](CC(C)C)NC(=O)[C@H](CCCNC(=N)N)NC(=O)[C@H](CCC(N)=O)NC(=O)[C@@H](NC(=O)[C@H](C)NC(=O)[C@@H]1CSSC[C@H](NC(=O)[C@@H](N)CCCCNC(=O)CC[C@H](NC(=O)CCCCCCCCCCCCCCCCCCC(=O)O)C(=O)O)C(=O)N[C@@H](CC(N)=O)C(=O)N[C@@H]([C@@H](C)O)C(=O)N[C@@H](C)C(=O)N[C@@H]([C@@H](C)O)C(=O)N1)[C@@H](C)O)C(=O)N1CCC[C@H]1C(=O)N[C@@H](CO)C(=O)N[C@@H](CO)C(=O)N[C@H](C(=O)N[C@@H](CC(N)=O)C(=O)N[C@H](C(=O)NCC(=O)N1CCC[C@H]1C(=O)N[C@@H](CCC(=O)O)C(=O)N[C@H](C(=O)N[C@@H](Cc1ccc(O)cc1)C(N)=O)[C@@H](C)O)C(C)C)[C@@H](C)O) | 5.2 | 161 | 841 | 0.14
K([γGlu-γGlu-C20 diacid])CNTATCATQRLAEFLRHSSPNFGAIPSSTNVGHETY-NH2 (disulfide 2-7; N-terminus assumed; SMILES CC[C@H](C)[C@H](NC(=O)[C@H](C)NC(=O)CNC(=O)[C@H](Cc1ccccc1)NC(=O)[C@H](CC(N)=O)NC(=O)[C@@H]1CCCN1C(=O)[C@H](CO)NC(=O)[C@H](CO)NC(=O)[C@H](Cc1c[nH]cn1)NC(=O)[C@H](CCCNC(=N)N)NC(=O)[C@H](CC(C)C)NC(=O)[C@H](Cc1ccccc1)NC(=O)[C@H](CCC(=O)O)NC(=O)[C@H](C)NC(=O)[C@H](CC(C)C)NC(=O)[C@H](CCCNC(=N)N)NC(=O)[C@H](CCC(N)=O)NC(=O)[C@@H](NC(=O)[C@H](C)NC(=O)[C@@H]1CSSC[C@H](NC(=O)[C@@H](N)CCCCNC(=O)CC[C@H](NC(=O)CC[C@H](NC(=O)CCCCCCCCCCCCCCCCCCC(=O)O)C(=O)O)C(=O)O)C(=O)N[C@@H](CC(N)=O)C(=O)N[C@@H]([C@@H](C)O)C(=O)N[C@@H](C)C(=O)N[C@@H]([C@@H](C)O)C(=O)N1)[C@@H](C)O)C(=O)N1CCC[C@H]1C(=O)N[C@@H](CO)C(=O)N[C@@H](CO)C(=O)N[C@H](C(=O)N[C@@H](CC(N)=O)C(=O)N[C@H](C(=O)NCC(=O)N[C@@H](Cc1c[nH]cn1)C(=O)N[C@@H](CCC(=O)O)C(=O)N[C@H](C(=O)N[C@@H](Cc1ccc(O)cc1)C(N)=O)[C@@H](C)O)C(C)C)[C@@H](C)O) |  | 445 | 7050 | 0.525
K([γGlu-γGlu-C20 diacid])CNTATCATQRLADFLRHSSPNFGAIPSSTNVGPETY-NH2 (disulfide 2-7) | 5.3 | 159 | 843 | 0.172
K([γGlu-γGlu-C20 diacid])CNTATCATQRLAEFLRHSSPNFGAIPSSTNVGRETY-NH2 (disulfide 2-7; N-terminus assumed; SMILES CC[C@H](C)[C@H](NC(=O)[C@H](C)NC(=O)CNC(=O)[C@H](Cc1ccccc1)NC(=O)[C@H](CC(N)=O)NC(=O)[C@@H]1CCCN1C(=O)[C@H](CO)NC(=O)[C@H](CO)NC(=O)[C@H](Cc1c[nH]cn1)NC(=O)[C@H](CCCNC(=N)N)NC(=O)[C@H](CC(C)C)NC(=O)[C@H](Cc1ccccc1)NC(=O)[C@H](CCC(=O)O)NC(=O)[C@H](C)NC(=O)[C@H](CC(C)C)NC(=O)[C@H](CCCNC(=N)N)NC(=O)[C@H](CCC(N)=O)NC(=O)[C@@H](NC(=O)[C@H](C)NC(=O)[C@@H]1CSSC[C@H](NC(=O)[C@@H](N)CCCCNC(=O)CC[C@H](NC(=O)CC[C@H](NC(=O)CCCCCCCCCCCCCCCCCCC(=O)O)C(=O)O)C(=O)O)C(=O)N[C@@H](CC(N)=O)C(=O)N[C@@H]([C@@H](C)O)C(=O)N[C@@H](C)C(=O)N[C@@H]([C@@H](C)O)C(=O)N1)[C@@H](C)O)C(=O)N1CCC[C@H]1C(=O)N[C@@H](CO)C(=O)N[C@@H](CO)C(=O)N[C@H](C(=O)N[C@@H](CC(N)=O)C(=O)N[C@H](C(=O)NCC(=O)N[C@@H](CCCNC(=N)N)C(=O)N[C@@H](CCC(=O)O)C(=O)N[C@H](C(=O)N[C@@H](Cc1ccc(O)cc1)C(N)=O)[C@@H](C)O)C(C)C)[C@@H](C)O) |  | 703 | 7430 | 0.957
K([γGlu-C20 diacid])CNTATCATQRLAEFLRHSSPNFGAIPSSTNVGPHTY-NH2 (disulfide 2-7) |  | 101 | 1450 | 0.179
K([γGlu-γGlu-C20 diacid])CNTATCATQRLAEFLRHSSPNFGAIPSSTNVGPETP-NH2 (disulfide 2-7; N-terminus assumed; SMILES CC[C@H](C)[C@H](NC(=O)[C@H](C)NC(=O)CNC(=O)[C@H](Cc1ccccc1)NC(=O)[C@H](CC(N)=O)NC(=O)[C@@H]1CCCN1C(=O)[C@H](CO)NC(=O)[C@H](CO)NC(=O)[C@H](Cc1c[nH]cn1)NC(=O)[C@H](CCCNC(=N)N)NC(=O)[C@H](CC(C)C)NC(=O)[C@H](Cc1ccccc1)NC(=O)[C@H](CCC(=O)O)NC(=O)[C@H](C)NC(=O)[C@H](CC(C)C)NC(=O)[C@H](CCCNC(=N)N)NC(=O)[C@H](CCC(N)=O)NC(=O)[C@@H](NC(=O)[C@H](C)NC(=O)[C@@H]1CSSC[C@H](NC(=O)[C@@H](N)CCCCNC(=O)CC[C@H](NC(=O)CC[C@H](NC(=O)CCCCCCCCCCCCCCCCCCC(=O)O)C(=O)O)C(=O)O)C(=O)N[C@@H](CC(N)=O)C(=O)N[C@@H]([C@@H](C)O)C(=O)N[C@@H](C)C(=O)N[C@@H]([C@@H](C)O)C(=O)N1)[C@@H](C)O)C(=O)N1CCC[C@H]1C(=O)N[C@@H](CO)C(=O)N[C@@H](CO)C(=O)N[C@H](C(=O)N[C@@H](CC(N)=O)C(=O)N[C@H](C(=O)NCC(=O)N1CCC[C@H]1C(=O)N[C@@H](CCC(=O)O)C(=O)N[C@H](C(=O)N1CCC[C@H]1C(N)=O)[C@@H](C)O)C(C)C)[C@@H](C)O) | 0.8 | 132 | 102 | 0.533
K([γGlu-C20 diacid])CNTATCATQRLAHFLRHSSPNFGAIPSSTNVGSHTY-NH2 (disulfide 2-7; N-terminus assumed; SMILES CC[C@H](C)[C@H](NC(=O)[C@H](C)NC(=O)CNC(=O)[C@H](Cc1ccccc1)NC(=O)[C@H](CC(N)=O)NC(=O)[C@@H]1CCCN1C(=O)[C@H](CO)NC(=O)[C@H](CO)NC(=O)[C@H](Cc1c[nH]cn1)NC(=O)[C@H](CCCNC(=N)N)NC(=O)[C@H](CC(C)C)NC(=O)[C@H](Cc1ccccc1)NC(=O)[C@H](Cc1c[nH]cn1)NC(=O)[C@H](C)NC(=O)[C@H](CC(C)C)NC(=O)[C@H](CCCNC(=N)N)NC(=O)[C@H](CCC(N)=O)NC(=O)[C@@H](NC(=O)[C@H](C)NC(=O)[C@@H]1CSSC[C@H](NC(=O)[C@@H](N)CCCCNC(=O)CC[C@H](NC(=O)CCCCCCCCCCCCCCCCCCC(=O)O)C(=O)O)C(=O)N[C@@H](CC(N)=O)C(=O)N[C@@H]([C@@H](C)O)C(=O)N[C@@H](C)C(=O)N[C@@H]([C@@H](C)O)C(=O)N1)[C@@H](C)O)C(=O)N1CCC[C@H]1C(=O)N[C@@H](CO)C(=O)N[C@@H](CO)C(=O)N[C@H](C(=O)N[C@@H](CC(N)=O)C(=O)N[C@H](C(=O)NCC(=O)N[C@@H](CO)C(=O)N[C@@H](Cc1c[nH]cn1)C(=O)N[C@H](C(=O)N[C@@H](Cc1ccc(O)cc1)C(N)=O)[C@@H](C)O)C(C)C)[C@@H](C)O, also called compound 66) | 20.1 | 27 | 542 | 0.396

— US20140087995A1 (published 2014)
